Results as given in paper PMC3695512, “Recognition of two distinct elements in the RNA substrate by the RNA-binding domain of the T. thermophilus DEAD box helicase Hera”.
Substitutions are numbered along the chain they refer to.

What was measured:
[1] = target: T1, Hera_RBD A452C (Thermus thermophilus, UniProt O07897 424-510, A452C); assay: fluorescence anisotropy; 5 mM Mg2+; Anisotropy: 50 mM Tris/HCl pH 7.5, 150 mM NaCl, 5 mM MgCl2 (Fig 2), 25 C, 50 nM RNA; EMSA: same Tris/NaCl, 12% glycerol, 25 C; NMR: 25 mM Bis-Tris/HCl pH 6.0, 50 mM NaCl, 10% D2O, 37 C; conditions: protein: recombinant; label: 5'-fluorescein; hairpin with 5' single strand
T1 sequence: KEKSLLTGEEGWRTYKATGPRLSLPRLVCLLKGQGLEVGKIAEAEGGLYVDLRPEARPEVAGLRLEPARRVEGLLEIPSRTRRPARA

[2] = target: T2, Hera_208-419 (RecA_C_DD) (Thermus thermophilus, UniProt O07897 208-419); assay: fluorescence anisotropy; 5 mM Mg2+; compared with full-length Hera; Anisotropy: 50 mM Tris/HCl pH 7.5, 150 mM NaCl, 5 mM MgCl2 (Fig 2), 25 C, 50 nM RNA; EMSA: same Tris/NaCl, 12% glycerol, 25 C; NMR: 25 mM Bis-Tris/HCl pH 6.0, 50 mM NaCl, 10% D2O, 37 C; conditions: protein: recombinant; chain copies: 2; label: 5'-fluorescein; hairpin with 5' single strand
T2 sequence: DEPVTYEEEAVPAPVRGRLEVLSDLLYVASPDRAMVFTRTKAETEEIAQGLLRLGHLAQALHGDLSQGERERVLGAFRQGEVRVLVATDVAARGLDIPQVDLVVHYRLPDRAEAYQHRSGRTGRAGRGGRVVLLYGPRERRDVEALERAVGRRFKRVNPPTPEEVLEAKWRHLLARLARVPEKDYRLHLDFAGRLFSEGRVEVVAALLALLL

[3] = target: T3, Hera_RBD K463A (Thermus thermophilus, UniProt O07897 424-510, K463A); assay: fluorescence anisotropy; 5 mM Mg2+; text also says abolishes binding; Anisotropy: 50 mM Tris/HCl pH 7.5, 150 mM NaCl, 5 mM MgCl2 (Fig 2), 25 C, 50 nM RNA; EMSA: same Tris/NaCl, 12% glycerol, 25 C; NMR: 25 mM Bis-Tris/HCl pH 6.0, 50 mM NaCl, 10% D2O, 37 C; conditions: protein: recombinant; label: 5'-fluorescein; hairpin with 5' single strand
T3 sequence: T1 sequence with C29A, K40A

[4] = target: T4, Hera_1-491 (Thermus thermophilus, UniProt O07897 1-491, del492-510); assay: fluorescence anisotropy; 5 mM Mg2+; Anisotropy: 50 mM Tris/HCl pH 7.5, 150 mM NaCl, 5 mM MgCl2 (Fig 2), 25 C, 50 nM RNA; EMSA: same Tris/NaCl, 12% glycerol, 25 C; NMR: 25 mM Bis-Tris/HCl pH 6.0, 50 mM NaCl, 10% D2O, 37 C; conditions: protein: recombinant; chain copies: 2; label: 5'-fluorescein; hairpin with 5' single strand
T4 sequence: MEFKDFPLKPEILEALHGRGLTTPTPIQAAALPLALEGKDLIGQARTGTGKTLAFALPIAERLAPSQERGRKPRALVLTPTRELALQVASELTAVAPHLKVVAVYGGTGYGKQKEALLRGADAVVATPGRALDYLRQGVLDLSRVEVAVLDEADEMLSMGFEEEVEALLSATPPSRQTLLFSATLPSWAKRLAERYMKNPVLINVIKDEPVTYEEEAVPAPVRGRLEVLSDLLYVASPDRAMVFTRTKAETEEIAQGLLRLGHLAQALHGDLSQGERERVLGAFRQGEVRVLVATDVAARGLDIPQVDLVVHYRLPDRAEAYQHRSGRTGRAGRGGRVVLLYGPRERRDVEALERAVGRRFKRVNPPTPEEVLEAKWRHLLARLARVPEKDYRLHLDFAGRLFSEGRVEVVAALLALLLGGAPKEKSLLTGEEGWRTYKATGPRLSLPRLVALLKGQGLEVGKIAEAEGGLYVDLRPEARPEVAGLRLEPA

## GCAGGUCCCAAGGGUUGGGCUGUUCGCCCAUU (structured_RNA) [32mer]
[1]
  binding signal: ~10 fold Kd increase
[2]
  binding signal: ~70 fold Kd increase
[3]
  binding signal: > 25 fold Kd increase
[4]
  Kd: 1100 ± 130 nM
